From US20050129678A1 (published 2005)

B1: GST-Yjl164C-Tpk1 (enzyme, UniProt P06244 1-397, looked up)
chain: MSTEEQNGGGQKSLDDRQGEESQKGETSERETTATESGNESKSVEKEGGETQEKPKQPHVTYYNEEQYKQFIAQARVTSGKYSLQDFQILRTLGTGSFGRVHLIRSRHNGRYYAMKVLKKEIVVRLKQVEHTNDERLMLSIVTHPFIIRMWGTFQDAQQIFMIMDYIEGGELFSLLRKSQRFPNPVAKFYAAEVCLALEYLHSKDIIYRDLKPENILLDKNGHIKITDFGFAKYVPDVTYTLCGTPDYIAPEVVSTKPYNKSIDWWSFGILIYEMLAGYTPFYDSNTMKTYEKILNAELRFPPFFNEDVKDLLSRLITRDLSQRLGNLQNGTEDVKNHPWFKEVVWEKLLSRNIETPYEPPIQQGQGDTSQFDKYPEEDINYGVQGEDPYADLFRDF
notes: not shown: glutathione S-transferase (GST) fusion tag
B2: GST-Ypl203W (enzyme, UniProt P06245 1-380, looked up)
chain: MEFVAERAQPVGQTIQQQNVNTYGQGVLQPHHDLQQRQQQQQQRQHQQLLTSQLPQKSLVSKGKYTLHDFQIMRTLGTGSFGRVHLVRSVHNGRYYAIKVLKKQQVVKMKQVEHTNDERRMLKLVEHPFLIRMWGTFQDARNIFMVMDYIEGGELFSLLRKSQRFPNPVAKFYAAEVILALEYLHAHNIIYRDLKPENILLDRNGHIKITDFGFAKEVQTVTWTLCGTPDYIAPEVITTKPYNKSVDWWSLGVLIYEMLAGYTPFYDTTPMKTYEKILQGKVVYPPYFHPDVVDLLSKLITADLTRRIGNLQSGSRDIKAHPWFSEVVWERLLAKDIETPYEPPITSGIGDTSLFDQYPEEQLDYGIQGDDPYAEYFQDF
notes: also called Ypl203W-Tpk2; Yp1203W; not shown: glutathione S-transferase (GST) fusion tag
B3: GST-Ykl166C (enzyme, UniProt P05986 1-398, looked up)
chain: MYVDPMNNNEIRKLSITAKTETTPDNVGQDIPVNAHSVHEECSSNTPVEINGRNSGKLKEEASAGICLVKKPMLQYRDTSGKYSLSDFQILRTLGTGSFGRVHLIRSNHNGRFYALKTLKKHTIVKLKQVEHTNDERRMLSIVSHPFIIRMWGTFQDSQQVFMVMDYIEGGELFSLLRKSQRFPNPVAKFYAAEVCLALEYLHSKDIIYRDLKPENILLDKNGHIKITDFGFAKYVPDVTYTLCGTPDYIAPEVVSTKPYNKSVDWWSFGVLIYEMLAGYTPFYNSNTMKTYENILNAELKFPPFFHPDAQDLLKKLITRDLSERLGNLQNGSEDVKNHPWFNEVIWEKLLARYIETPYEPPIQQGQGDTSQFDRYPEEEFNYGIQGEDPYMDLMKEF
notes: also called Ykl166C-Tpk3; Tpk3; not shown: glutathione S-transferase (GST) fusion tag
B4: endogenous Tpk1 (enzyme, yeast, UniProt P06244 2-397, looked up)
chain: STEEQNGGGQKSLDDRQGEESQKGETSERETTATESGNESKSVEKEGGETQEKPKQPHVTYYNEEQYKQFIAQARVTSGKYSLQDFQILRTLGTGSFGRVHLIRSRHNGRYYAMKVLKKEIVVRLKQVEHTNDERLMLSIVTHPFIIRMWGTFQDAQQIFMIMDYIEGGELFSLLRKSQRFPNPVAKFYAAEVCLALEYLHSKDIIYRDLKPENILLDKNGHIKITDFGFAKYVPDVTYTLCGTPDYIAPEVVSTKPYNKSIDWWSFGILIYEMLAGYTPFYDSNTMKTYEKILNAELRFPPFFNEDVKDLLSRLITRDLSQRLGNLQNGTEDVKNHPWFKEVVWEKLLSRNIETPYEPPIQQGQGDTSQFDKYPEEDINYGVQGEDPYADLFRDF
notes: Untagged yeast Tpk1 found in a GST fusion preparation; also called Tpk1wt; a protein with the same molecular weight as Tpk1

Legend:
[1] = target: T1, GST-Yil033C (yeast, UniProt P07278 1-416); assay: microarray-based protein-protein interaction
T1 construct: also called Yil033C-Bcy1; Yil033C-Bcyl; not shown: glutathione S-transferase (GST) fusion tag
T1 sequence (looked up): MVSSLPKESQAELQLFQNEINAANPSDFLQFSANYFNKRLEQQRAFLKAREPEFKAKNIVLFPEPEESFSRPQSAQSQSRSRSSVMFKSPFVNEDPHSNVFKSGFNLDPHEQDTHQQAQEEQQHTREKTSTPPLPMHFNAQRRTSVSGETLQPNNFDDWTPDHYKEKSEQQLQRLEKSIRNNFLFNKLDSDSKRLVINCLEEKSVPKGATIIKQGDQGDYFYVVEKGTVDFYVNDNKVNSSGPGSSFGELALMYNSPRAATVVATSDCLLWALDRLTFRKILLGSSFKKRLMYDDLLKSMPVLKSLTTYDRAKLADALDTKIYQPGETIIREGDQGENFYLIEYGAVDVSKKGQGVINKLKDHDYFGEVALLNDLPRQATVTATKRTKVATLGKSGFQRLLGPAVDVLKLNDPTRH

[2] = target: B3; assay: microarray-based protein interaction experiment
[3] = target: B4; assay: co-purification with the GST fusion, Western blot with anti-Tpk1
From the text: (§1) Tpk1 is a protein kinase involved in pseudohyphal growth and ras signal transduction (Robertson et al., 1998, Pro Natl Acad Sci USA 95, 13783-7; Tokiwa et al., 1994, Nature 371, 342-5). […] Three of these proteins, Ykl166C-Tpk3 (a protein kinase), Ypl203W-Tpk2 (a protein kinase) and Yil033C-Bcyl (a cAMP-dependent protein kinase inhibitor) have been shown by mass spectroscopy to be co-immunoprecipitated with Tpk1 (Ho et al., 2002, Nature 415, 180-3).
(§2) SDS-PAGE and Western analyses of Protein Samples. Purified proteins were mixed with sample buffer, heated and run in 5%/10% SDS-PAGE gels, transferred to nitrocellulose and blocked overnight with 1% BSA in TBST. Subsequently, blots were probed with primary antibodies for 2 hours, washed three times with TBST, probed with secondary antibodies conjugated to HRP for 1 hour and washed three times with TBST. Femto-reagent (Pierce Co., Milwaukee) was added and images acquired with an Alpha Innotech Imaging station.

[4] = target: B3; assay: as above
From the text: as §1, §2

Binder | binding result [1] | binding result [2] | binding result [3] | binding result [4]
B1 | binds | no binding | – | –
B2 | binds | – | no binding | –
B3 | binds | – | – | –
B4 | – | – | – | no binding
